Data as given in FireProtDB (doi:10.1021/bi00492a006).

B1: Ribonuclease, P00648 (parent)
chain: MMKMEGIALKKRLSWISVCLLVLVSAAGMLFSTAAKTETSSHKAHTEAQVINTFDGVADYLQTYHKLPDNYITKSEAQALGWVASKGNLADVAPGKSIGGDIFSNREGKLPGKSGRTWREADINYTSGFRNSDRILYSSDWLIYKTTDHYQTFTKIR

Variants of: B1
Settings: Bacillus amyloliquefaciens; pH 6.3; 25 °C; Urea; Fluorescence; MES-NaOH 50 mM; reversible: yes; structure 1BNI; whole UniProt chain shown

| Variant | ddG of mutation (higher = less stable) [kcal/mol] | denaturant m value [kcal/mol/M] | denaturant midpoint (higher = more stable) [M] | unfolding free energy [kcal/mol] |
| --- | --- | --- | --- | --- |
| D59A | -0.11 | 2.33 | 4.33 | 10.1 |
| D59A T63R | 0.13 | 2.24 | 4.4 | 9.88 |
| T63R | 0.78 | 1.94 | 4.75 | 9.23 |
